B1: Cyclin-F, residues 28 to 80; numbered along this chain, P41002 (parent)
chain: RNLTILSLPEDVLFHILKWLSVEDILAVRAVHSQLKDLVDNHASVWACASFQE

± gives the uncertainty stated by the source.

The series covers variants of B1. Kind of series: abundance fitness (aPCA) (normalised: wild type 0, dead -1); higher = more abundant; growth selection in yeast, the domain comes from the species named. The conditions noted are these: Homo sapiens.
In the case of RNLTILSLPEDVLFHILKWLSVEDILAVRAVHGQLKDLVDNHASVWACASFQE [S33G], the abundance fitness was -0.554 ± 0.064. RNLTILSLPEDVLFHILKWLSVEDILAVRAVHEQLKDLVDNHASVWACASFQE [S33E]: the abundance fitness is -0.675 ± 0.081. In the case of RNLTILSLPEDVLFHILKWLSVEDILAVRAVHFQLKDLVDNHASVWACASFQE [S33F] it was -0.801 ± 0.11; in that of RNLTILSLPEDVLFHILKWLSVEDILAVRAVHCQLKDLVDNHASVWACASFQE [S33C], -0.828 ± 0.15; in that of RNLTILSLPEDVLFHILKWLSVEDILAVRAVHAQLKDLVDNHASVWACASFQE [S33A], -0.648 ± 0.072. Turning to RNLTILSLPEDVLFHILKWLSVEDILAVFAVHSQLKDLVDNHASVWACASFQE [R29F], the abundance fitness was -0.574 ± 0.17. In the case of RNLTILSLPEDVLFHILKWLSVEDILAVYAVHSQLKDLVDNHASVWACASFQE [R29Y] it was -0.713 ± 0.21; in that of RNLTILSLPEDVLFHILKWLSVEDILAVVAVHSQLKDLVDNHASVWACASFQE [R29V], -0.541 ± 0.12. In the case of RNLTILSLPEDVLFHILKWLSVEDILAVPAVHSQLKDLVDNHASVWACASFQE [R29P] it was -0.716 ± 0.16; in that of RNLTILSLPEDVLFHILKWLSVEDILAVHAVHSQLKDLVDNHASVWACASFQE [R29H], -0.65 ± 0.14. In the case of RNLTILSLPEDVLFHILKWLSVEDILAVNAVHSQLKDLVDNHASVWACASFQE [R29N] it was -0.955 ± 0.19; in that of RNLTILSLPEDVLFHILKWLSVEDILAVQAVHSQLKDLVDNHASVWACASFQE [R29Q], -0.801 ± 0.15; in that of RNLTILSLPEDVLFHILKWLSVEDILAVWAVHSQLKDLVDNHASVWACASFQE [R29W], -0.814 ± 0.15. For the variant RNLTILSLPEDVLFHILKWLSVEDILAVCAVHSQLKDLVDNHASVWACASFQE [R29C], the abundance fitness was -0.635 ± 0.19. With RNLTILSLPEDVLFHILKWLSVEDILAVAAVHSQLKDLVDNHASVWACASFQE [R29A], the abundance fitness is -0.827 ± 0.19. In the case of RNLTILSLPEDVLFHILKWLSVEDILAVEAVHSQLKDLVDNHASVWACASFQE [R29E] it was -0.863 ± 0.18; in that of RNLTILSLPEDVLFHILKWLSVEDILAVGAVHSQLKDLVDNHASVWACASFQE [R29G], -0.795 ± 0.12; in that of RNLTILSLPEDVLFHILKWLSVEDILAVSAVHSQLKDLVDNHASVWACASFQE [R29S], -0.655 ± 0.1. As to RNLTILSLPEDVLFHILKWLSVEDILAVTAVHSQLKDLVDNHASVWACASFQE [R29T], the abundance fitness was -0.909 ± 0.2. In the case of RNLTILSLPEDVLFHILKWLSVEDILAVLAVHSQLKDLVDNHASVWACASFQE [R29L] it was -0.833 ± 0.11; in that of RNLTILSLPEDVLFHILKWLSVEDILAVIAVHSQLKDLVDNHASVWACASFQE [R29I], -0.793 ± 0.18; in that of RNLTILSLPEDVLFHILKWLSVEDILAVMAVHSQLKDLVDNHASVWACASFQE [R29M], -0.541 ± 0.14. In the case of RNLTILSLPEDVLFHILKWLSVEDILAQRAVHSQLKDLVDNHASVWACASFQE [V28Q] it was -0.716 ± 0.2; in that of RNLTILSLPEDVLFHILKWLSVEDILALRAVHSQLKDLVDNHASVWACASFQE [V28L], 0.168 ± 0.083. In the case of RNLTILSLPEDVLFHILKWLSVEDILANRAVHSQLKDLVDNHASVWACASFQE [V28N] it was -1.09 ± 0.37; in that of RNLTILSLPEDVLFHILKWLSVEDILAPRAVHSQLKDLVDNHASVWACASFQE [V28P], -0.88 ± 0.15; in that of RNLTILSLPEDVLFHILKWLSVEDILACRAVHSQLKDLVDNHASVWACASFQE [V28C], -0.173 ± 0.17. For RNLTILSLPEDVLFHILKWLSVEDILASRAVHSQLKDLVDNHASVWACASFQE [V28S], the abundance fitness is -0.823 ± 0.12. In the case of RNLTILSLPEDVLFHILKWLSVEDILAFRAVHSQLKDLVDNHASVWACASFQE [V28F] it was -0.396 ± 0.14. In the case of RNLTILSLPEDVLFHILKWLSVEDILAMRAVHSQLKDLVDNHASVWACASFQE [V28M] it was 0.036 ± 0.14; in that of RNLTILSLPEDVLFHILKWLSVEDILAERAVHSQLKDLVDNHASVWACASFQE [V28E], -0.82 ± 0.18; in that of RNLTILSLPEDVLFHILKWLSVEDILAKRAVHSQLKDLVDNHASVWACASFQE [V28K], -0.71 ± 0.2. In the case of RNLTILSLPEDVLFHILKWLSVEDILARRAVHSQLKDLVDNHASVWACASFQE [V28R] it was -0.833 ± 0.12. RNLTILSLPEDVLFHILKWLSVEDILAHRAVHSQLKDLVDNHASVWACASFQE [V28H]: the abundance fitness is -0.372 ± 0.22.

RNLTILSLPEDVLFHILKWLSVEDILAIRAVHSQLKDLVDNHASVWACASFQE [V28I]: the abundance fitness is -0.184 ± 0.09. RNLTILSLPEDVLFHILKWLSVEDILAARAVHSQLKDLVDNHASVWACASFQE [V28A]: the abundance fitness was -0.774 ± 0.13. In the case of RNLTILSLPEDVLFHILKWLSVEDILATRAVHSQLKDLVDNHASVWACASFQE [V28T] it was -0.615 ± 0.15; in that of RNLTILSLPEDVLFHILKWLSVEDILADRAVHSQLKDLVDNHASVWACASFQE [V28D], -0.885 ± 0.21; in that of RNLTILSLPEDVLFHILKWLSVEDILAWRAVHSQLKDLVDNHASVWACASFQE [V28W], -0.705 ± 0.13. In the case of RNLTILSLPEDVLFHILKWLSVEDILAGRAVHSQLKDLVDNHASVWACASFQE [V28G] it was -0.759 ± 0.1; in that of RNLTILSLPEDVLFHILKWLSVEDILAVRASHSQLKDLVDNHASVWACASFQE [V31S], 0.191 ± 0.09. In the case of RNLTILSLPEDVLFHILKWLSVEDILAVRAWHSQLKDLVDNHASVWACASFQE [V31W] it was -0.769 ± 0.19; in that of RNLTILSLPEDVLFHILKWLSVEDILAVRAAHSQLKDLVDNHASVWACASFQE [V31A], -0.046 ± 0.089; in that of RNLTILSLPEDVLFHILKWLSVEDILAVRAFHSQLKDLVDNHASVWACASFQE [V31F], -0.747 ± 0.17. For RNLTILSLPEDVLFHILKWLSVEDILAVRAGHSQLKDLVDNHASVWACASFQE [V31G], the abundance fitness was -0.672 ± 0.11.

In the case of RNLTILSLPEDVLFHILKWLSVEDILAVRAIHSQLKDLVDNHASVWACASFQE [V31I], the abundance fitness is -0.594 ± 0.11. In the case of RNLTILSLPEDVLFHILKWLSVEDILAVRAEHSQLKDLVDNHASVWACASFQE [V31E] it was -1.16 ± 0.24; in that of RNLTILSLPEDVLFHILKWLSVEDILAVRANHSQLKDLVDNHASVWACASFQE [V31N], -0.586 ± 0.31; in that of RNLTILSLPEDVLFHILKWLSVEDILAVRAHHSQLKDLVDNHASVWACASFQE [V31H], -0.976 ± 0.22.

(Values after the Human Domainome abundance scans (Beltran et al. 2025).)
